Patent US20110224407A1 (published 2011)
Blank lines part the entries; values can stand above or below the molecule they belong to.

Tests used:
[1] = molecular target: human IFNAR-1 on human cells (HeLa, WISH, A549) (human) (UniProt P17181); experiment: cell-based or functional assay
[2] = molecular target: murine IFNAR-1 on murine cells (L-929, NFS-01) (murine) (UniProt P33896); experiment: cell-based or functional assay
[3] = molecular target: T1, human IFNAR1-ECD (human, UniProt P17181 28-436); experiment: SPR, IFNAR-1-ECD captured by antibody
T1 construct: extracellular domain; Purified ECD captured on the chip by antibody DB2 and cross-linked with AA3; also called purified human IFNAR-1
T1 sequence (looked up): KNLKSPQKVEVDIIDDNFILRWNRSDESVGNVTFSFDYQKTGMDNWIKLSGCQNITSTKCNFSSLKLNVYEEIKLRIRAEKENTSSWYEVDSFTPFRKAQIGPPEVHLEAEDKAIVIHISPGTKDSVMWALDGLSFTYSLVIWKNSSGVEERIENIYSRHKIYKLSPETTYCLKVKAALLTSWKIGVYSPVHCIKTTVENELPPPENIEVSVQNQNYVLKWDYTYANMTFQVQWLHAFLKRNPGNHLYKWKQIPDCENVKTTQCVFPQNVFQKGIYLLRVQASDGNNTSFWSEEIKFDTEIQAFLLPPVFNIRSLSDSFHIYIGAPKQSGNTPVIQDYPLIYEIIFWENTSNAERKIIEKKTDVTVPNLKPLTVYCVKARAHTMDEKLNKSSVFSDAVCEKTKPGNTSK
Protocol: Binding to purified human IFNAR-1 and IFNAR-2 is measured with the Protein Interaction Array system (Bio-Rad) according to published methods. A solution of 0.005% Tween20 in PBS pH 7.4 was used as running buffer at a flow rate of 30 μl/min. […] Thereafter, five of the six channels were reacted with IFNAR1-ECD or IFNAR2-ECD (180 μl at a concentration of 0.5 μM), leaving one channel free as reference. This was followed by cross-linking a second antibody. […] Data were analyzed with the BIAeval 4.1 software, using, the standard Langmuir models for fitting kinetic data. Dissociation constants KD were determined from the rate constants according to:

Chain of murine IFNAR-1 on murine cells (L-929, NFS-01) (murine) (P33896 27-590): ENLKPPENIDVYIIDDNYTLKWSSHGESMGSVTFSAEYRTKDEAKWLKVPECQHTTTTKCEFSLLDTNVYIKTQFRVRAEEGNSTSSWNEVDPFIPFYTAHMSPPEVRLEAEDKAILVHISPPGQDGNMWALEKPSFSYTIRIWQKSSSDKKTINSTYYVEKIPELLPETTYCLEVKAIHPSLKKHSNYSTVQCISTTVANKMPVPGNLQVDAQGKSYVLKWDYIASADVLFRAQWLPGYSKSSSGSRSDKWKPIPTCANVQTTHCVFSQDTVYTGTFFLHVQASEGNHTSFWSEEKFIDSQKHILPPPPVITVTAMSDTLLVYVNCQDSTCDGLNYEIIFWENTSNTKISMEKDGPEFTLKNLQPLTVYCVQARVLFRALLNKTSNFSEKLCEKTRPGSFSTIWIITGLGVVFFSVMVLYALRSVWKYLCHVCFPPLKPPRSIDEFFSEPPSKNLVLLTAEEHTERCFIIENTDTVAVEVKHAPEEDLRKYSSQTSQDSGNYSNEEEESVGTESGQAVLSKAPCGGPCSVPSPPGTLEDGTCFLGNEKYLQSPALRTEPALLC

Molecule: IFN-α2 NLYY-120A (N65A/L80A/Y85A/Y89A/R120A) (from UniProt P01563 24-188) (ligand)
- Antiproliferative Activity (% of Native EC50), Human (Wish) [1]: < 0.001%
- Antiviral Activity (% of Native EC50), Human (HeLa) [1]: < 0.002%
- Antiviral Activity (% of Native EC50), Human (Wish) [1]: < 0.001%

Molecule: IFN-α2/α1 5-site alanine substitution mutant (F64/N65/L80/C85/Y89) (from UniProt A0A087WWS6 25-190) (ligand)
- Antiviral Activity (% of Native), Human (HeLa) [1]: 4.2%
- Antiviral Activity (% of Native), Human (Wish) [1]: 11%

Molecule: IFN-α2/α1[C85A/Y89A] (from UniProt A0A087WWS6 25-190) (ligand)
- Antiviral Activity (% of Native), Human (HeLa) [1]: 143%
- Antiviral Activity (% of Native), Human (Wish) [1]: 183%

Molecule: IFN-α2/α1[K120E/K121E/R124E] (from UniProt A0A087WWS6 25-190) (ligand)
- Antiviral Activity (% of Native), Murine (L-929) [2]: < 0.01%
- Antiproliferative Activity (% of native), Human (WISH) [1]: < 0.2%
- Antiviral Activity (% of Native), Human (HeLa) [1]: < 0.04%
- Antiviral Activity (% of Native), Human (Wish) [1]: < 0.1%

Molecule: IFN-α2/α1[K121E] (from UniProt A0A087WWS6 25-190) (ligand)
- Antiviral Activity (% of Native), Murine (L-929) [2]: 0.5%
- Antiviral Activity (% of Native), Human (HeLa) [1]: 8%

Molecule: IFN-α2/α1[L80A/C85A/Y89A] (from UniProt A0A087WWS6 25-190) (ligand)
- Antiviral Activity (% of Native), Murine (L-929) [2]: 100%
- Antiviral Activity (% of Native), Human (HeLa) [1]: 54%
- Antiviral Activity (% of Native), Human (Wish) [1]: 204%

Molecule: IFN-α2/α1[N65A/L80A/C85A/Y89A] (from UniProt A0A087WWS6 25-190) (ligand)
- Antiviral Activity (% of Native), Murine (L-929) [2]: 55%
- Antiviral activity (relative %), IFN-α2/α1, Human HeLa (partial results) [1]: 63%

Molecule: IFN-α2/α1[R124E] (from UniProt A0A087WWS6 25-190) (ligand)
- Antiviral Activity (% of Native), Murine (L-929) [2]: 100%
- Antiviral Activity (% of Native), Human (HeLa) [1]: 20%

Molecule: IFN-α2/α1[Y89A] (from UniProt A0A087WWS6 25-190) (ligand)
- Antiviral Activity (% of Native), Murine (L-929) [2]: 38%
- Antiviral Activity (% of Native), Human (HeLa) [1]: 69%
- Antiviral Activity (% of Native), Human (Wish) [1]: 96%

B1: human-derived chimeric IFN-α2/α1 (native) (ligand)
chain: CDLPQTHSLGSRRTLMLLAQMRKISLFSCLKDRHDFGFPQEEFGNQFQKAETIPVLHEMIQQIFNLFTTKDSSAAWDEDLLDKFCTELYQQLNDLEACVMQEERVGETPLMNADSILAVKKYFRRITLYLTEKKYSPCAWEVVRAEIMRSLSLSTNLQERLRRKE
notes: the text itself names F64; E. coli; also called IFN-αA/D; Hu-alpha2/1
- fold stronger affinity than IFN-α2 [3]: ~5 fold
- ratio of KD to that of IFN-α2 [3]: ~0.2

Other lines, results leading:

- Antiviral Activity (% of Native EC50), Human (Wish) [1]: 0.03%
Molecule: IFN-α2 NLYY-117A (N65A/L80A/Y85A/Y89A/L117A) (from UniProt P01563 24-188) (ligand)

- Antiviral Activity (% of Native), Murine (L-929) [2]: 144%
- Antiviral Activity (% of Native), Human (HeLa) [1]: 141%
Molecule: IFN-α2/α1[C85A] (from UniProt A0A087WWS6 25-190) (ligand)

- Antiproliferative Activity (% of native), Murine (NFS-01) [2]: 8%
- Antiviral Activity (% of Native), Murine (L-929) [2]: 33%
- Antiproliferative Activity (% of native), Human (WISH) [1]: 0.5%
- Antiviral Activity (% of Native), Human (HeLa) [1]: 8.3%
- Antiviral Activity (% of Native), Human (Wish) [1]: 13.8%
Molecule: IFN-α2/α1[K120A/K121A] (from UniProt A0A087WWS6 25-190) (ligand)

- Antiproliferative Activity (% of native), Murine (NFS-01) [2]: 0.03%
- Antiviral Activity (% of Native), Murine (L-929) [2]: 2%
- Antiproliferative Activity (% of native), Human (WISH) [1]: 0.7%
- Antiviral Activity (% of Native), Human (HeLa) [1]: 2%
- Antiviral Activity (% of Native), Human (Wish) [1]: 9.7%
Molecule: IFN-α2/α1[K120A] (from UniProt A0A087WWS6 25-190) (ligand)

- Antiproliferative Activity (% of native), Murine (NFS-01) [2]: < 0.0001%
- Antiviral Activity (% of Native), Murine (L-929) [2]: < 0.04%
- Antiproliferative Activity (% of native), Human (WISH) [1]: < 0.05%
- Antiviral Activity (% of Native), Human (HeLa) [1]: < 0.08%
- Antiviral Activity (% of Native), Human (Wish) [1]: 0.006%
Molecule: IFN-α2/α1[K120E/K121E] (from UniProt A0A087WWS6 25-190) (ligand)

- Antiproliferative Activity (% of native), Murine (NFS-01) [2]: < 0.0005%
- Antiviral Activity (% of Native), Murine (L-929) [2]: < 0.04%
- Antiproliferative Activity (% of native), Human (WISH) [1]: < 0.02%
- Antiviral Activity (% of Native), Human (HeLa) [1]: < 0.04%
- Antiviral Activity (% of Native), Human (Wish) [1]: < 0.02%
Molecule: IFN-α2/α1[K120E] (from UniProt A0A087WWS6 25-190) (ligand)

- Antiviral Activity (% of Native), Murine (L-929) [2]: 31%
- Antiviral Activity (% of native), Human; *Assay on human A549 cells [1]: 19%
Molecule: IFN-α2/α1[L80A] (from UniProt A0A087WWS6 25-190) (ligand)

- Antiproliferative Activity (% of Native EC50), Human (Wish) [1]: < 0.02%
- Antiviral Activity (% of Native EC50), Human (HeLa) [1]: < 1.3%
- Antiviral Activity (% of Native EC50), Human (Wish) [1]: < 0.002%
Molecule: IFN-α2b-[Arg120Glu/Lys121Glu] (from UniProt P01563 24-188) (ligand)

- Antiproliferative Activity, Human (Wish; %) [1]: 0.05%
- Antiviral Activity (% of Native EC50), Human (HeLa) [1]: 2.3%
Molecule: IFN-α2b[R120A] (from UniProt P01563 24-188) (ligand)
